What was measured:
WT animals = test: Murine myocardial ischemia and reperfusion model, rmSema7a injected into WT animals; format: in vivo, mouse
Description: This animal model has been described in detail in the prior art. Subgroups of animals received either recombinant mouse Sema7a (rmSema7a) or recombinant mouse IgG2A Fc (rmlgG2A Fc; control) intravenously before the start of the experiment or Sema7a antibody (abcam ab23578, Cambridge, UK; anti-Sema7a) or as control rabbit IgG sc-2027 (Santa Cruz Biotechnology, Santa Cruz, USA) 5 minutes before the start of reperfusion.
The Vectastain ABC kit (Linaris, Wertheim, Germany) was used for immunohistochemical staining. After inhibition of the nonspecific binding sites with avidin blocking solution (Vector), the sections were incubated with primary antibodies (rabbit anti-mouse CD41, abcam, Cambridge, UK) overnight at 4° C. Tissue sections were then incubated with biotinylated rabbit anti-IgG for 1 hour, followed by Vectastain ABC reagent for 30 minutes, then developed over DAB substrate. For PMN staining, the procedure was repeated using rat anti-mouse neutrophil antibody (BioRad, Serotec, Puchheim, Germany) and HistoGreen as substrate (Linaris, Wertheim, Germany). Counterstaining was performed with Nuclear Fast Red (Linaris, Wertheim, Germany). Histological sections were analyzed for the presence of PNCs by manual counting within 3 independent tissue sections of each animal at a magnification of […].
(§1) Troponin blood plasma levels of samples collected by central venous puncture after 120 minutes of reperfusion were measured for murine troponin I type 3 (TNNI3) using the SEA478Mu ELISA kit (Cloud-Clone Corp, Houston, USA).
For flow cytometric analysis, the following antibodies were used and freshly prepared before the experiment: rat anti-mouse Ly6G (Biolegend, clone 1A8) labeled with BV421 (Biolegend 127628), rat anti-mouse CD42b-FITC (Emfret, clone Xia.G5), rat anti-mouse CD62P (BD Pharmingen, clone RB40.34) labeled with Alexa Fluor 647 (BD 563674), rat anti-mouse activated GPIlb/IIIa-PE (Emfret, clone JON/A).
After staining, sampling focused peripheral granulocytes by their granularity and surface expression of the lymphocyte antigen-6 complex, locus G (Ly-6G), referred to as SSC/Ly-6G+. The presence of the platelet surface marker CD42b on the surface of SSC/Ly-6G+ events distinguished SSC/Ly-6G+/CD42b+ platelet-neutrophil complexes (PNCs) from freely circulating SSC/Ly-6G+/CD42b- PMNs. These two populations were tested for their representation of the surface transmembrane glycoprotein P-selectin (CD62P) and activated GPIlb/IIIa (clone JON/A) (not shown).

WT platelets = test: Flow chamber: thrombus formation on collagen in flow, whole-blood perfusion; format: cell-based, mouse
Description: (§2) Platelet adhesion in flow was measured by perfusion of murine whole blood on collagen-coated coverslips (200 μg/ml fibrillar type I collagen) at 1000 s^−1 or 400 s^−1, as indicated. Platelets were labeled with a DyLight 488-conjugated anti-GPIX Ig derivative ([…]) and treated with rmSema7a or IgG2A Fc for 5 minutes at 37° C. before perfusion. In the case of treatment with GPlb-blocking antibody, 100 μg/mouse p0p/B Fab was injected intravenously 20 minutes before blood collection for the experiment. In further experiments, blood from animals with […] GPlb (GPlb-IL4tg) was used.

GPlb-IL-4-tg platelets = test: Flow chamber: thrombus formation on collagen in flow, blood of GPlb-IL-4tg mice; format: cell-based, mouse; conditions: shear rate 1000 s−1
Description: as §2

[1] = test system: Sema7a^loxP/loxP HBBCre+ animals; test: Murine myocardial ischemia and reperfusion model, reconstitution of Sema7a loxP/loxP HbbCre+ animals with rmSema7a; format: in vivo, mouse
From the text: Sema7a^−/−mice were generated, validated and characterized as described in the prior art. The corresponding WT controls were bred as littermates of the Sema7a mice. In a subset of experiments, a newly generated Sema7a flox mouse line (Sema7a^loxP/loxP/Ozgene) on a C57BL/6 background was crossed with the following Cre recombinase-positive mouse lines to obtain tissue-specific gene deletion: Erythrocyte-specific HbbCre+, myocardial cell-specific Myh6Cre+; endothelial cell-specific Tie2Cre+; and immune cell-specific LysMCre+. Tissue-specific gene deletions of Sema7a mouse lines (Sema7a^loxP/loxP HbbCre+; Sema7a^loxP/loxP Myh6Cre+, […], and Sema7a^loxP/loxP LysMCre+) were used in the experiments. Sema7a^loxP/loxP Cre-negative (−) littermates were used as controls. […]
The Vectastain ABC kit (Linaris, Wertheim, Germany) was used for immunohistochemical staining. […] Histological sections were analyzed for the presence of PNCs by manual counting within 3 independent tissue sections of each animal at a magnification of […].
as §1

neutrophils = test: Neutrophil rolling/adhesion, coated capillaries and intravital microscopy of cremaster; parameters: species or system mouse; conditions: in vitro and in vivo
Description: Mice were anesthetized, and cremasal tissue was dissected under a Nikon 20×water immersion lens (NA=0.32). Neutrophils were resuspended with 20 μl of anti-Ly6G (Biolegend 127608) and platelets with 20 μl of platelet-specific FITC-labeled X488 antibody (emfret, Eibelstadt, Germany) in 200 μl and administered i.v. Videos of postcapillary cremaster venules 20-40 μm in diameter were recorded using a Hamamatsu Orca Flash 4.0 camera mounted on a dual-emission image splitter (optoSplit II, Cairn Research; UK) at a rate of 16 frames/s (for videos totaling 10 seconds) and with a resolution of 2048×1024 pixels mounted on a Nikon Eclipse Ci-L microscope (Nikon, Dusseldorf; Germany) operated by NIS elements Ar software. Videos were recorded before administration of rmSema7a i.v., and videos were recorded at 20-second intervals for 5 minutes after incubation for 15 minutes. Neutrophil velocity (μm/sec) was calculated from manually tracked cells, stationary neutrophils were counted (cell count/mm^2), platelet sedimentation on the vessel wall was measured (normalized MFI %/mm), transmigrated cells from the vasculature after 15 min exposure to rmSema7a were counted (cell count/mm^2), the distance of transmigrated cells measured in μm in all videos was calculated using NIS elements Ar software 4.20-64 bit processed (Nikon, Dusseldorf, Germany).

[2] = test system: human cardiac myocytes (HMCs); test: Caspase 3 staining and caspase 3 ELISA in cardiac myocytes; format: cell-based; conditions: 1 μg/ml; cardiomyocytes
Description: Human cardiac myocytes (HMC-c; PromoCell, Heidelberg, Germany) were grown to confluence on chamber slides followed by 6 hours of stimulation with rhSEMA7A, rhlgG1 Fc, BSA, or staurosporine (Sigma-Aldrich, Munich, Germany), 1 μg/ml each. After fixation, cells were stained with rabbit polyclonal anticaspase3 (abcam, Cambridge, UK).

B1: rmSema7a: recombinant mouse Sema7a fusion protein (R&D SYSTEMS, Minneapolis, USA) (protein)
chain: QGHSRSGPRISAVWKGQDHVDFSQPEPHTVLFHEPGSFSVWVGGRGKVYHFNFPEGKNASVRTVNIGSTKGSCQDKQDCGNYITLLERRGNGLLVCGTNARKPSCWNLVNDSVVMSLGEMKGYAPFSPDENSLVLFEGDEVYSTIRKQEYNGKIPRFRRIRGESELYTSDTVMQNPQFIKATIVHQDQAYDDKIYYFFREDNPDKNPEAPLNVSRVAQLCRGDQGGESSLSVSKWNTFLKAMLVCSDAATNRNFNRLQDVFLLPDPSGQWRDTRVYGVFSNPWNYSAVCVYSLGDIDRVFRTSSLKGYHMGLPNPRPGMCLPKKQPIPTETFQVADSHPEVAQRVEPMGPLKTPLFHSKYHYQKVVVHRMQASNGETFHVLYLTTDRGTIHKVVESGDQDHSFVFNIMEIQPFHRAAAIQAISLDADRRKLYVTSQWEVSQVPLDMCEVYSGGCHGCLMSRDPYCGWDQDRCVSIYSSQRSVLQSINPAEPHRECPNPKPDEAPLQKVSLARNSRYYLTCPMESRHATYLWRHEENVEQSCEPGHQSPSCILFIENLTARQYGHYRCEAQEGSYLREAQHWELLPEDRALAEQLMGHARALA
modifications: left off: a dimerising Fc or GST
For B1, the infarct size (WT animals; 1 μg/mouse before reperfusion, compared with rmIgG2A Fc control) was “significantly increased infarct size”, the “numbers of PNCs in tissue areas at risk (histological sections)” value (WT animals; compared with Fc controls) was “decreased numbers of PNCs” and the “tissue damage in histological sections” value (WT animals; compared with Fc controls) was “increased tissue damage”. For the same molecule, the “PNCs extravasated into the myocardium in the AAR” value (WT animals; flow cytometry) was “more PNCs extravasated”, the “numbers of PNCs in the blood” value (WT animals; flow cytometry) was “significantly increased numbers of PNCs” and the “signals for GPlb, P-selectin, and activated integrin αIIbβ3 (JON/A) on conjugates in the AAR” value (WT animals; flow cytometry) was “significantly increased signals”. The “signals for the platelet markers GPlb, CD62P, and activated integrin αIIbβ3 (JON/A) on conjugates in blood” value (WT animals; flow cytometry) was “stronger signals”, the “troponin I” value (WT animals; plasma, 120 min, compared with Fc control) was “increased troponin I” and the “adhesion and thrombus formation of WT platelets on collagen in flow” value (WT platelets; shear rate 400 s^−1) was “markedly enhances”. For the same molecule, the “adhesion and thrombus formation of WT platelets on collagen in flow” value (WT platelets; shear rate 1000 s^−1) was “markedly enhances”, the “adhesion or thrombus formation of GPlb-IL-4-tg platelets on collagen in flow” value (GPlb-IL-4-tg platelets) was “does not affect” and the “reduction in infarct size, plasma TnI and PNCs seen in Sema7a loxP/loxP HbbCre+ animals” value ([1]; injection of rmSema7a) was “these results were reversed”. The MIRI ([1]; ischemia 1 h, reperfusion 2 h, vs Fc control) was “increased MIRI” and the neutrophil adhesion (neutrophils) was “affected neutrophil adhesion”.

B2: rhSEMA7A: recombinant human SEMA7A (protein, UniProt O75326 45-648, looked up)
Semaphorin-7A: QGHLRSGPRIFAVWKGHVGQDRVDFGQTEPHTVLFHEPGSSSVWVGGRGKVYLFDFPEGKNASVRTVNIGSTKGSCLDKRDCENYITLLERRSEGLLACGTNARHPSCWNLVNGTVVPLGEMRGYAPFSPDENSLVLFEGDEVYSTIRKQEYNGKIPRFRRIRGESELYTSDTVMQNPQFIKATIVHQDQAYDDKIYYFFREDNPDKNPEAPLNVSRVAQLCRGDQGGESSLSVSKWNTFLKAMLVCSDAATNKNFNRLQDVFLLPDPSGQWRDTRVYGVFSNPWNYSAVCVYSLGDIDKVFRTSSLKGYHSSLPNPRPGKCLPDQQPIPTETFQVADRHPEVAQRVEPMGPLKTPLFHSKYHYQKVAVHRMQASHGETFHVLYLTTDRGTIHKVVEPGEQEHSFAFNIMEIQPFRRAAAIQTMSLDAERRKLYVSSQWEVSQVPLDLCEVYGGGCHGCLMSRDPYCGWDQGRCISIYSSERSVLQSINPAEPHKECPNPKPDKAPLQKVSLAPNSRYYLSCPMESRHATYSWRHKENVEQSCEPGHQSPNCILFIENLTAQQYGHYFCEAQEGSYFREAQHWQLLPEDGIMAEHLLGHACALA
B2 was tested, and the “pro-apoptotic effect assessed by caspase 3 activation” value [2] was “no direct pro-apoptotic effect”.

— US20230036161A1, “AGENT FOR USE IN THE TREATMENT AND PROPHYLAXIS OF POSTISCHEMIC TISSUE INJURY” (Eberhard Karls Universität Tübingen Medizinische Fakultät, priority 2020, published 2023)
